Assay results published in patent publication US20180186853A1 (HANMI PHARM, published 2018).
Non-standard residues stand in square brackets, D forms with d. No end group written: not given here. Aib = CC(C)(N)C(=O)O

What follows are binders tested against human glucagon receptor (human, UniProt P47871 26-477) (assay: cell-based or functional assay).
human glucagon receptor, sequence (P47871 26-477): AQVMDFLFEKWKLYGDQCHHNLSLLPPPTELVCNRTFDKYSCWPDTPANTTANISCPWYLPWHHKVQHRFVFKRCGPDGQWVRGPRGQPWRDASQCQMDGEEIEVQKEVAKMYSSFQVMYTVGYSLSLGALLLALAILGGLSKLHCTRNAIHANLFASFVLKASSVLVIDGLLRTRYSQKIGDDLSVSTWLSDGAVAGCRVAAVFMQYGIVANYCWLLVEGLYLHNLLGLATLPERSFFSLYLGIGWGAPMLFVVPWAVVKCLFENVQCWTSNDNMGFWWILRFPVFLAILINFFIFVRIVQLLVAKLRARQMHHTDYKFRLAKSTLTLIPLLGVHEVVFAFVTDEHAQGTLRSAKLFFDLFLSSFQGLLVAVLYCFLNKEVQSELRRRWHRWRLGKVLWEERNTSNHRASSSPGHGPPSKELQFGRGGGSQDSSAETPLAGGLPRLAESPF

Binder | In vitro Activity (Relative Activity of SEQ ID NO: 1, %), from cAMP EC50
HSQGTFTSDYSKYLDSCEADDFVQWLMNT [glucagon derivative of SEQ ID NO: 6] | < 0.1%
YSQGTFTSDYSKYLDSCEADDFVQWLMNT [glucagon derivative of SEQ ID NO: 7] | < 0.1%
Y[Aib]QGTFTSDYSKYLDSCDAQDFVQWLINT [glucagon derivative of SEQ ID NO: 8] | < 0.1%
